Tests used:
BR = biological target: T1, BR (Halobacterium salinarum, UniProt P02945); assay: HPLC of chromophore extracted from purified protein; assay type: binding; conditions: covalent; Schiff base to Lys216; dark- and light-adapted; 0.05% DDM, 10 mM HEPES, pH 7.5
T1 construct: gene bop; native BR from Hs by sucrose density gradient; text also mentions Ni-NTA purification and a vector-cloned BR from E. coli
T1 sequence (P02945 14-262): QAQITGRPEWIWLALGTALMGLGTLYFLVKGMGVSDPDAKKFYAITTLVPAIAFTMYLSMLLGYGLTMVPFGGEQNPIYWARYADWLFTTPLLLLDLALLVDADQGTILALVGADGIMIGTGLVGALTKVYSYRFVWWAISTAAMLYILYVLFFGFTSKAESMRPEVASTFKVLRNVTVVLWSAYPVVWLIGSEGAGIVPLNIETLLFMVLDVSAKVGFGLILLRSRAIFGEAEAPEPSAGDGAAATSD

Asp95 = Asp95 (UniProt position 95, YARYADWLFTT); assay: UV-vis; conditions: not stated (six-component buffer said to keep ionic strength constant); citric acid/MES/HEPES/MOPS/CHES/CAPS, each 10 mM; retinal-bound, detergent-solubilised trimer; steady-state titration; light or dark adaptation state not stated
Asp85 = Asp85 (UniProt position 98, WARYADWLFTT); conditions: cited from earlier work
[1] = biological target: Bacteriorhodopsin (Halobacterium salinarum) (UniProt P02945); assay: SEC; Superdex 200 10/300 GL, 25 °C, 10 mM HEPES pH 7.5, 100 mM NaCl, 0.05% DDM, 0.5 mL/min, detection at 280 and 560 nm; apparent mass from calibration standards, trimer deduced after allowing for bound DDM
[2] = biological target: Halorubrum sp. Ejinoor Archaerhodopsin (Halorubrum sp. Ejinoor); assay: as above

Which “HPLC of chromophore extracted from purified protein” value (BR) does the source give for `CC1=C(/C=C/C(C)=C/C=C/C(C)=C\C=O)C(C)(C)CCC1` [13-cis retinal] here?
Its value is “both HeAR and BR contain only two retinal chromophore isomers: All-trans and 13-cis”.

Which “HPLC of chromophore extracted from purified protein” value (BR) does the source give for `CC1=C(/C=C/C(C)=C/C=C/C(C)=C/C=O)C(C)(C)CCC1` [All-trans retinal] here?
The value was “both HeAR and BR contain only two retinal chromophore isomers: All-trans and 13-cis”.

For “Archaerhodopsin HeAR (Halorubrum sp. Ejinoor)”, which pKa (Asp95) is on record?
Its pKa is 3.5 ± 0.1.

For “Bacteriorhodopsin (BR) (Halobacterium salinarum)”, which pKa (Asp85) is on record?
Its pKa is about 2.6.

For “Bacteriorhodopsin (from UniProt P02945 14-262) (natural protein)”, which stoichiometry N [1] is on record?
Its stoichiometry N is 3.

For “Halorubrum sp. Ejinoor Archaerhodopsin (natural protein)”, which stoichiometry N [2] is on record?
The stoichiometry N was 3.
